In paper PMC11528428:

Biological target: CD3ζ subunit of the T cell receptor (TCR) in nonactivated Jurkat T cells (human (endogenous in Jurkat)) (UniProt P20963)
Experiment: single-molecule localization microscopy (DNA-PAINT with qPAINT counting); nonactivated Jurkat T cells, TIRF; stepwise model: Ka,j of a monomer joining a cluster of j-1 proteins, from the distribution of cluster sizes, j = 2 to 8, average of eight cells

## CD3ζ subunit of the T cell receptor (TCR) in nonactivated Jurkat T cells (from UniProt P20963-1 22-164)
  log Ka,j (stepwise association of a monomer to a cluster, j = 2-8) (log, μm^2 scale): -1.4
